For two molecules, apparent Kd of the inhibition of actin filament gliding velocity (myosin S1 fixed on nitrocellulose-coated coverslips, central domain titrated in the assay buffer; 2.2 uM halted gliding) and apparent Kd of the inhibition of actin filament gliding velocity (myosin S1 fixed on nitrocellulose-coated coverslips, UNC-45B titrated in the assay buffer; 2.8 uM inhibited translocation completely) results are on record in paper PMC5757175.

Test [1] deals with myosin subfragment-1 (S1) from rabbit skeletal muscle (rabbit).
Test [2] has the same target. This is another data set of the same source.

In the case of “central domain of Mus musculus UNC-45B (domain or fragment)”, the apparent Kd of the inhibition of actin filament gliding velocity (myosin S1 fixed on nitrocellulose-coated coverslips, central domain titrated in the assay buffer; 2.2 uM halted gliding) in test [1] was determined as 400 nM.

B1: full-length Mus musculus UNC-45B (natural protein)
chain: MAEAEAAQLKEEGNRHFQLQDYKAATKSYSQALKLTKDKALLATLYRNRAACGLKMESYAQAASDASRAIDINSADIKALYRRCQALEHLGKLDQAFKDVQRCATLEPRNQNFQETLRRLNTSIQEQLRVQFSTDSRVQTMFEILLNENSEADKREKAANNLIVLGREEAGAERIFQSNGVALLLQLMNTQRPELLLAAVRTLSGMCSGHRARATAILHAVRIDRICSLMALENEEMSLAVCNLLQAIIDSLSGEDKREHRGKEEALVLDTKKDLKQITSHLLDMLVSKKVSGQGRDQALNLLNKNVPRKDLSIHDNSRTIYVVDNGLRKILKVVGQVPDLPSCLPLTDNTRMLASILINKLYDDLRCDPERDHFRKICEEYITSKFDPQDMDKNVNAIQTVSGILQGPFDLGNQLLGMKGVMEMMVALCGSEREADQLVAVEALIHASTKLSRATFIITNGVTLLKQIYKTTKNEKIKIRTLVGLCKLGSAGGSDYGLRQFAEGSTEKLAKQCRKWLCNTAIDTRTRRWAVEGLAYLTLDADVKDDFVQDIPALQAMFELAKARTSDKTILYSVANTLVNCTNSYDVKEVVPELVQLAKFSKQHVPEEHPKDKKDFVDLRVKRLLKAGVISALACMVKADSAILTDQTKELLARVFLALCDNPKDRGTIVAQGGGKALIPLALEGTDVGKVKAAHGLAKIAAVSNPDIAFPGERVYEVVRPLVSLLDTQRDGLQNYEALLGLTNLSGRSDKLRQKIFKEKALPDIENYMFENHDQLRQAATECMCNMVLNKEVQERFLADGNDRLKLVVLLCGEDDHKLQNAAAGALAMLTAAHKKLCLKMTEVTTQWLEILQRLCLHDQLSVQHRGLVIAHNLLSADAELARKLVESELLEILTVVGKQEPDEKRAAVVQTARECLIKCMDYGFIKPVS
As to B1, the apparent Kd of the inhibition of actin filament gliding velocity (myosin S1 fixed on nitrocellulose-coated coverslips, UNC-45B titrated in the assay buffer; 2.8 uM inhibited translocation completely) in test [2] stood at 200 nM.
